In the supplement of paper PMC7125110:
± gives the standard error. Fewer inactive variants are shown than the library holds.

B1: glmS ribozyme (parent)
chain: AUAAAAGCGCCAGAACUACAGAAAUGUAGUUGACGAGGAGGAGGUUUAUCGAAUUUUCGGCGGAUGCCUCCAAA

Assays:
Conditions in all cases: with glucosamine-6-phosphate
glucosamine-6-phosphate [1] = variants of: B1; assay: self-cleavage kobs at 40 uM GlcN6P; higher = faster cleavage; RNA array
Method in brief: (§1)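 In situ transcription by E. coli RNA polymerase produced barcoded ribozyme variants on sequenced MiSeq chips, and a hybridised Cy3 probe tracked them at 37 °C. Glucosamine-6-phosphate was flowed in at 40 μM to 10 mM in HEPES/KCl/Mg(OAc)2 buffer. kcat and KM were taken from weighted Michaelis–Menten fits of kobs values from exponential decay fits.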

glucosamine-6-phosphate [2] = variants of: B1; assay: self-cleavage kobs at 2500 uM GlcN6P; higher = faster cleavage; RNA array
Method in brief: as §1

glucosamine-6-phosphate [3] = variants of: B1; assay: self-cleavage kobs at 160 uM GlcN6P; higher = faster cleavage; RNA array
Method in brief: as §1

glucosamine-6-phosphate [4] = variants of: B1; assay: self-cleavage kobs at 640 uM GlcN6P; higher = faster cleavage; RNA array
Method in brief: as §1

glucosamine-6-phosphate [5] = variants of: B1; assay: self-cleavage kobs at 10000 uM GlcN6P; higher = faster cleavage; RNA array
Method in brief: as §1

Variant | self-cleavage kobs at 40 uM GlcN6P (glucosamine-6-phosphate [1]) [s⁻¹] | self-cleavage kobs at 2500 uM GlcN6P (glucosamine-6-phosphate [2]) [s⁻¹] | self-cleavage kobs at 160 uM GlcN6P (glucosamine-6-phosphate [3]) [s⁻¹] | self-cleavage kobs at 640 uM GlcN6P (glucosamine-6-phosphate [4]) [s⁻¹] | self-cleavage kobs at 10000 uM GlcN6P (glucosamine-6-phosphate [5]) [s⁻¹]
C11G G66U | < 1e-05 | < 1e-05 |  |  | 
U31C U56G | 0.000154 ± 1.9e-05 | 0.00194 ± 0.0003 | 0.000413 ± 9.2e-05 | 0.000899 ± 0.00013 | 0.00757 ± 0.00091
G43U G63C | < 1e-05 | < 1e-05 | < 1e-05 | < 1e-05 | 
G43U G63U | < 1e-05 | < 1e-05 | < 1e-05 |  | < 1e-05
G38U A48C C71G | < 1e-05 |  |  |  | < 1e-05
G7U C16U G29C U54A | < 1e-05 | < 1e-05 |  |  | 
C10A U46G | < 1e-05 | < 1e-05 | < 1e-05 | < 1e-05 | 
A14G A42G | 0.0027 ± 0.00037 | 0.0467 ± 0.022 | 0.00391 ± 0.0011 | 0.00956 ± 0.0029 | 0.0773 ± 0.025
G29A G38A U46G C61U | < 1e-05 |  |  |  | < 1e-05
G37A A52U G59A G60A | < 1e-05 |  |  |  | 
U30C G35A C50G C61U A64G | 0.000165 ± 5.1e-05 |  |  |  | 
C10U G60U | < 1e-05 |  | < 1e-05 | < 1e-05 | < 1e-05
C10U G38C | < 1e-05 |  | < 1e-05 |  | 
G35U U46A C58U | < 1e-05 | < 1e-05 | < 1e-05 |  | < 1e-05
C11U A33G G37U C71A | < 1e-05 |  |  |  | < 1e-05
G44C C58U | < 1e-05 | < 1e-05 | < 1e-05 | < 1e-05 | < 1e-05
A6G C71G | < 1e-05 | < 1e-05 | < 1e-05 | < 1e-05 | 
A15U A33U C61G | < 1e-05 |  |  |  | 
C58G C68G | 3.25e-05 ± 1.1e-05 | 9.87e-05 ± 1.7e-05 | 6.63e-05 ± 1.4e-05 | 9.11e-05 ± 1.1e-05 | 1.82e-05 ± 7.1e-06
A12U C16U G62A | < 1e-05 |  |  |  | 
U69G | 0.000371 ± 0.00012 | 0.00011 ± 4.1e-05 | 5.87e-05 ± 2.4e-06 | 0.000488 ± 0.00012 | 0.000467 ± 7.8e-05
